Experimental findings from the supplement of paper PMC9170038 are described below.

This data set relates to MS2 coat protein. Put plainly: apparent KD of MS2 coat protein; designed switch direction (-1 OFF switch, 1 ON switch): -1; higher = weaker reporter binding. The gist of the method: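 Stalled E. coli RNA polymerase transcribed designed RNA switches on Illumina chips, which were then titrated with SNAP-549-labelled MS2 coat protein, doubling from 0.7 or 1.5 nM to 3 µM. Steps lasted from 0.8–1.5 h at the lowest concentration to 10–20 min at the highest. The apparent KD is each design's median over clusters of curve-fitted normalised fluorescence.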

[1] abbreviates: input ligand: microRNA oligo, concentration not stated.
[2] abbreviates: Eterna round: R95, input ligand: microRNA oligo, concentration not stated.
Setting [3] is: Eterna round: R95, input ligand: FMN 200 uM.
[4] abbreviates: Eterna round: R95, input ligand: none.

Regarding “CACCUGAAGAGAGGAUAUGAUACAUGAGGAUCACCCAUGUAAUAAAUGAGAAUUUCGAAUGUAAUUCAGAAGGCUCGAUAAGGC [Ostricism 100 - Jieux - Exclusion NG 2] (Eterna round: R96, puzzle: Exclusion NG 2)”, the “apparent KD of MS2 coat protein” value runs as follows: (input ligand: FMN 200 uM) 121 nM; under setting [1], 45.6 nM; (input ligand: none) 55.3 nM.

For “CACGAAUAGUGAGGAUAUGUGCGACAAAGUUGCACAGAAGGCACAUGAGGAUCACCCAUGUAAGCUAGGUCGAAAGACCUAGCG [Omei Exc(NG)1 A] (Eterna round: R96, puzzle: Exclusion NG 1)”, the “apparent KD of MS2 coat protein” value runs as follows: (input ligand: FMN 200 uM) 37.4 nM; under setting [1], 15.3 nM; (input ligand: none) 24.2 nM.

As to “CACGGCUUAGGAUAUACAUGAGGAUCACCCAUGUGGGAAAGCCAAGGCGUGGUAAAGUGUAGAAGGAAGAAGGA [Solaedra] (puzzle: Exclusion 3)”, under setting [2], the “apparent KD of MS2 coat protein” value was found to be 12.5 nM.

As to “CACGUGAGAGGAUAUACAUGAGGAUCACCCAUGUAUACAGCAGGGUAUGAAGACUUGGGUAGAAGGCUCGCGUG [Eternabot (L2) Solution 39] (Eterna round: R97, puzzle: Exclusion 3)”, the “apparent KD of MS2 coat protein” value (input ligand: FMN 200 uM) was determined as 173 nM and the “apparent KD of MS2 coat protein” value (input ligand: none) was found to be 270 nM.

“CAGACACAUGAGGAUCACCCAUGUGAGGAUAUGCGUACGUUGUCCGUAGGCGACGUGCGCAGAAGGCGCAAAGG [JL-ex1-3.10 Eli mod] (puzzle: Exclusion 1)”: the “apparent KD of MS2 coat protein” value under setting [3] was determined as 65.7 nM, the “apparent KD of MS2 coat protein” value under setting [2] is 67 nM and the “apparent KD of MS2 coat protein” value under setting [4] was found to be 79.4 nM.

“CAGCGUGAAGGAUAUACAUGAGGAUCACCCAUGUGCAACUCUCCAACUCGGACUCCCUGUAGAAGGUCGGCUUU [Eternabot (L2) Solution 88] (Eterna round: R97, puzzle: Exclusion 3)”: the “apparent KD of MS2 coat protein” value (input ligand: FMN 200 uM) is 26.9 nM and the “apparent KD of MS2 coat protein” value (input ligand: none) stood at 28 nM.

For “CAGCUGAAAGUCAGGAUAUCUAGAGCUUCGGCUCUAGAGAAGGGACAUGAGGAUCACCCAUGUGAUCACAGCUG [BmEx4/4-A1] (Eterna round: R97, puzzle: Brourd's mod of Exclusion 4)”, the “apparent KD of MS2 coat protein” value (input ligand: FMN 200 uM) turned out to be 152 nM and the “apparent KD of MS2 coat protein” value (input ligand: none) came to 1900 nM.

Turning to “CAGCUGAAAGUGAGGAUAUCGACUGCUUCGGCAGUCGAGAAGGCACAUGAGGAUCACCCAUGUCUCAACAGCUG [BmEx4/1-A4] (Eterna round: R97, puzzle: Brourd's mod of Exclusion 4)”, the “apparent KD of MS2 coat protein” value is, setting by setting: (input ligand: FMN 200 uM) 70.3 nM; (input ligand: none) 20.7 nM.

In the case of “CAGCUGAAUGUGAGGAUAUUACGAGCCUCGGCUCGUGAGAAGGCACAUGAGGAUCACCCAUGUCUCAACAGCUG [BmEx4/2-B2] (Eterna round: R97, puzzle: Brourd's mod of Exclusion 4)”, the “apparent KD of MS2 coat protein” value is 759 nM (input ligand: FMN 200 uM) and 36.2 nM (input ligand: none).

“CAGGUGUUAGGAUAUCGGAGAUUGAGGCAGACGGGAAUAUUCGAGAAGGAACAUGAGGAUCACCCAUGUAGUAG [JR_Exclu4_Sub036] (puzzle: Exclusion 4)”: the “apparent KD of MS2 coat protein” value under setting [2] stood at 23.9 nM.

As to “CAGGUUAGAGGAUAUACGUAGGUACAGAUCUGUGUGUUUCUACAUGAGGAUCACCCAUGUAGAAGGCUAUCCUG [LRO-Excl2-10] (puzzle: Exclusion 2)”, under setting [2], the “apparent KD of MS2 coat protein” value is 25.3 nM.

With “CAGUACUGAGGAUAUACAUGAGGAUCACCCAUGUGCCUCAGGUAGGAUACUACCAUUAGUAGAAGGCAGUACUG [Fiskers Ex 3 828 mod 18] (puzzle: Exclusion 3)”, under setting [2], the “apparent KD of MS2 coat protein” value was determined as 128 nM.

Regarding “CAGUACUGAGGAUAUACAUGAGGAUCACCCAUGUGGGAGAUACUAGUGAGGUCGAUUAGUAGAAGGCAGUACUG [Mat X3R4 m21] (Eterna round: R97, puzzle: Exclusion 3)”, the “apparent KD of MS2 coat protein” value is, setting by setting: (input ligand: FMN 200 uM) 903 nM; (input ligand: none) 184 nM.

Consider “CAGUACUGAGGAUAUACAUGAGGAUCACCCAUGUGGUCCAGCUAGGAAACUAGCAAAAGUAGAAGGCAGUACUG [salish99_ex3_r3_083] (puzzle: Exclusion 3)”, for which the “apparent KD of MS2 coat protein” value under setting [3] came out at 12.5 nM, the “apparent KD of MS2 coat protein” value under setting [2] is 71.5 nM and the “apparent KD of MS2 coat protein” value under setting [4] was found to be 218 nM.

As for “CAGUACUGAGGAUAUACAUGAGGAUCACCCAUGUGUCUAAGGUAGGAUACUACCAUUAGUAGAAGGCAGUACUG [Fiskers Ex 3 828 mod 19] (puzzle: Exclusion 3)”, the “apparent KD of MS2 coat protein” value under setting [2] was 13.2 nM.

As for “CAGUACUGAGGAUAUACAUGAGGAUCACCCAUGUGUUCCAGCUAGGAGACUAGCAAAUGUAGAAGGCAGUACUG [jl-ex3-4.02 salish99 mod] (Eterna round: R97, puzzle: Exclusion 3)”, the “apparent KD of MS2 coat protein” value is, setting by setting: (input ligand: FMN 200 uM) 615 nM; (input ligand: none) 406 nM.

On to “CAGUACUGAGGAUAUACAUGAGGAUCACCCAUGUGUUCCAGCUAGGAGACUAGCAAGUGUAGAAGGCAGUACUG [jl-ex3-4.01 salish99 mod] (Eterna round: R97, puzzle: Exclusion 3)”, for which the “apparent KD of MS2 coat protein” value runs as follows: (input ligand: FMN 200 uM) 293 nM; (input ligand: none) 434 nM.

As to “CAGUACUGAGGAUAUACAUGAGGAUCACCCAUGUGUUCCAGCUAGGAUACUAGCAAAUGUAGAAGGCAGUACUG [Mat - Exclusion 3 - Eli Mod - D8] (Eterna round: R97, puzzle: Exclusion 3)”, the “apparent KD of MS2 coat protein” value runs as follows: (input ligand: FMN 200 uM) 62.9 nM; (input ligand: none) 227 nM.

As for “CAGUACUGAGGAUAUACAUGAGGAUCACCCAUGUGUUCCGGCUAGGAUACUAGCAAAGGAAGAAGGCAGUACUG [Mat - Exclusion 3 - Eli Mod - D23] (Eterna round: R97, puzzle: Exclusion 3)”, the “apparent KD of MS2 coat protein” value is, setting by setting: (input ligand: FMN 200 uM) 22.7 nM; (input ligand: none) 17.1 nM.

Take “CAUAAGUGAGGAUAUCCUGGCCCUAUGCGUUAGGCGCGCUAGGAGAAGGCACAUGAGGAUCACCCAUGUCUCUC [Eternabot (L1) Solution 21] (Eterna round: R97, puzzle: Exclusion 4)”: the “apparent KD of MS2 coat protein” value was found to be 76.6 nM (input ligand: FMN 200 uM) and 29.7 nM (input ligand: none).

On to “CAUACACAUGAGGAUCACCCAUGUGAGGAUAUGAAUACGUUGUCCGUAGGCGACGUGAUCAGAAGGCGCUUGGU [Mat - Mod of JL D100] (puzzle: Exclusion 1)”, for which the “apparent KD of MS2 coat protein” value under setting [2] came to 44 nM.

Turning to “CAUACUAAAGUCAGGAUAUGCGGUCGAAUACGGGUGUAGAAGGGACAUGAGGAUCACCCAUGUAGAUAGUAAAG [EX-4 Malc #18] (puzzle: Brourd's mod of Exclusion 4)”, the “apparent KD of MS2 coat protein” value turned out to be 93.1 nM under setting [3], 90.2 nM under setting [2] and 129 nM under setting [4].

As to “CAUACUGAAGUUAGGAUAUUCGAACGUAUACGGAUGGAGAAGGGACAUGAGGAUCACCCAUGUAGAUAGUAAAG [EX-4 Malc #11] (puzzle: Brourd's mod of Exclusion 4)”, the “apparent KD of MS2 coat protein” value under setting [3] is 23.1 nM, the “apparent KD of MS2 coat protein” value under setting [2] stood at 21.5 nM and the “apparent KD of MS2 coat protein” value under setting [4] was determined as 23.1 nM.

For the sequence “CAUCCACAUGAGGAUCACCCAUGUCAGGAUAUUGUACAAACCCAAUCAUAUUGGGCGUCAAGAAGGGACAUUCU [EX1 B.5] (Eterna round: R97, puzzle: Exclusion 1)”, the “apparent KD of MS2 coat protein” value by setting is: (input ligand: FMN 200 uM) 22.8 nM; (input ligand: none) 12.4 nM.
